Results taken from patent publication US20250312444A1 (BEIJING TUO JIE BIOPHARMACEUTICAL, published 2025).

Experiments:
Experiment in all cases: cell-based or functional assay
[1] = target: dog RXFP1 receptor (dog)
[2] = target: T1, cynomolgus monkey RXFP1 receptor (cynomolgus monkey, UniProt H9ERA2 1-757 (rhesus entry))
T1 sequence: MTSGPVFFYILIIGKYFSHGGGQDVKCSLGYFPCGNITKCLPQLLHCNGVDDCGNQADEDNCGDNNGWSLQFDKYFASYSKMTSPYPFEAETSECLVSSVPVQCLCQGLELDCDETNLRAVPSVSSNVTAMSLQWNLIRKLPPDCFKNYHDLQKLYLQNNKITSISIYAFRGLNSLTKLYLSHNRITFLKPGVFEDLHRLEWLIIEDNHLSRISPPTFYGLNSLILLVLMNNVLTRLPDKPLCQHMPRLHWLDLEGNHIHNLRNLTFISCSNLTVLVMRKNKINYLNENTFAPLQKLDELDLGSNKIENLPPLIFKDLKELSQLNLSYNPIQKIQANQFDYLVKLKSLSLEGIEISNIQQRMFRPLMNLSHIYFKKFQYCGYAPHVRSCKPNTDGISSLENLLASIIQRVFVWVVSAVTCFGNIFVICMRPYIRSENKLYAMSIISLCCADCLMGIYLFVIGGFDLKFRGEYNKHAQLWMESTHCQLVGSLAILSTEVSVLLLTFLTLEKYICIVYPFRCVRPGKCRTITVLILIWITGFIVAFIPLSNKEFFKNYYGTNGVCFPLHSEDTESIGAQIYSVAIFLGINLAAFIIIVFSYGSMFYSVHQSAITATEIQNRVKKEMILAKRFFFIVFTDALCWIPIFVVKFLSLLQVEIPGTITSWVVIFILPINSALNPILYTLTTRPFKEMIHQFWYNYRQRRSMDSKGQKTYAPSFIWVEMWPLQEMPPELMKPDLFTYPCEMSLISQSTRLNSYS

[3] = target: T2, rat RXFP1 receptor (rat, UniProt Q6R6I6 1-758)
T2 sequence (looked up): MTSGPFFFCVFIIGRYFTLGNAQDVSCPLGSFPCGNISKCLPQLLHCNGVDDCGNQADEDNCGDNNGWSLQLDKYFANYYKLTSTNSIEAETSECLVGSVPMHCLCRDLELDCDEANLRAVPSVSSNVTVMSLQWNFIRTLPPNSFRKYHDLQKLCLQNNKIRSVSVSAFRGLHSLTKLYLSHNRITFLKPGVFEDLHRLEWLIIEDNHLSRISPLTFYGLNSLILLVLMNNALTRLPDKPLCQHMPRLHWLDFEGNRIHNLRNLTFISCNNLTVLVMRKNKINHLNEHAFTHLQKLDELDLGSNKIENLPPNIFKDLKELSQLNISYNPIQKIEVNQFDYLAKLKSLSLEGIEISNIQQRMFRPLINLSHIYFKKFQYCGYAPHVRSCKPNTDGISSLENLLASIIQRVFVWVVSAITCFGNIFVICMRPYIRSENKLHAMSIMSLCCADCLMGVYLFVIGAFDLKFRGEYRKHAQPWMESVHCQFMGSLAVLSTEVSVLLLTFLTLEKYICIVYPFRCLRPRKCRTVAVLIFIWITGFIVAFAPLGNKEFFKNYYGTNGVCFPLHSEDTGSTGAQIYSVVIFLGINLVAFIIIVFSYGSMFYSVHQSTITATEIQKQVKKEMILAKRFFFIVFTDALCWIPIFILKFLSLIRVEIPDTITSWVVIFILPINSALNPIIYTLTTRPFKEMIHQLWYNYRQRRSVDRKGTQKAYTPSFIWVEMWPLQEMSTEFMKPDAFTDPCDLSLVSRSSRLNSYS

[4] = target: T3, mouse RXFP1 receptor (mouse, UniProt Q6R6I7 1-758)
T3 sequence (looked up): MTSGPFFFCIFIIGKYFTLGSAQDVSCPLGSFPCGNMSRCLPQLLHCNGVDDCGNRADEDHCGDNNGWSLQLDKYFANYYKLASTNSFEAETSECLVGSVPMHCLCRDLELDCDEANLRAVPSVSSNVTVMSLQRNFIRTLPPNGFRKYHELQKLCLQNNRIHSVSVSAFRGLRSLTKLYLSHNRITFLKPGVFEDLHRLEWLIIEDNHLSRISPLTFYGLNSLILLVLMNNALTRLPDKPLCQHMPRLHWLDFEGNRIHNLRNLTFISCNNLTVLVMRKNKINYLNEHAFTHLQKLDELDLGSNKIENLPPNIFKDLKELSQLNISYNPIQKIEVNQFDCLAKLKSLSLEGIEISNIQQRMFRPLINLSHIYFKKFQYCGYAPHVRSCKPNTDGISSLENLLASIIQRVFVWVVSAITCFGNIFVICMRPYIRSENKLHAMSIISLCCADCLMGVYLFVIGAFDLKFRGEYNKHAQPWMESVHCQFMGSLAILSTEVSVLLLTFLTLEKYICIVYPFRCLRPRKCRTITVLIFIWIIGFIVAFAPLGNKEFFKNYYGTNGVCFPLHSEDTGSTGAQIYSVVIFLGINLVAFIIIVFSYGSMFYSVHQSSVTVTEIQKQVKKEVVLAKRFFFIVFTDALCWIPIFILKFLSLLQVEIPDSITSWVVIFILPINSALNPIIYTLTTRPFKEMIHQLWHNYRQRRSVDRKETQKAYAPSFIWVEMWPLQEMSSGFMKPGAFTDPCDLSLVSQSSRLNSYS

EC50 (nM), cAMP production in CHO-K1 cells with receptor overexpression [1]: 2210 nM
EC50 (nM), cAMP production in CHO-K1 cells with receptor overexpression [2]: 25.1 nM
EC50 (nM), cAMP production in CHO-K1 cells with receptor overexpression [3]: 21.1 nM
EC50 (nM), cAMP production in CHO-K1 cells with receptor overexpression [4]: 21.7 nM
B1: 0051 (other)
chain: EVQLLESGGGLVQPGGSLRLSCAASGFTFLTSCMGWFRQAPGKEREGVSSIYTVGGSTFYTNSVKGRFTISRDNSKNTLYLQMNSLRAEDTAVYYCAAGSPARCRLRDPTTFDYWGQGTLVTVSSGGGGQGGGGQGGGGQGGGGQGGGGQSWMEEVIKLCGRELVRAQIAICGMSTWSGGGSGGSGGGQLYSALANKCCHVGCTKRSLARFC
notes: Single-chain fusion: anti-HSA VHH, linker, relaxin-2 B chain, linker, relaxin-2 A chain; also called fusion protein 0051; molecule 0051
